Our source for the geometric mean fluorescence values is US20070192884A1.

The target in experiment [1] is TAT-038 as carried by human tumor cell lines (H1299, PC-3, K562, HL-60) (human) (UniProt P15144). Description: flow cytometry, H1299 human tumor cells. Background: Flow cytometry measures light scatter and fluorescence of single cells or particles in a stream.
The target is the same in experiment [2]. Description: flow cytometry, PC-3 human tumor cells.
The target is the same in experiment [3]. Briefly: flow cytometry, K562 human tumor cells.
For experiment [4] the target is unchanged. Description: flow cytometry, PC3 human tumor cells.
Experiment [5] concerns the target TAT-038 (full-length, cloned from human placenta cDNA, expressed from phCMV1-TAT-038 in stable 293G and BaF3 cells) (human) (UniProt P15144). Description: flow cytometry, BaF3 cells stably expressing TAT-038 (BAF3 ANPEP).
The target is the same in experiment [6]. Briefly: flow cytometry, 293G cells stably expressing TAT-038 (293G-ANPEP).
Experiment [7] deals with TAT-038 as carried by human tumor cell lines (H1299, PC-3, K562, HL-60) (human) (UniProt P15144). Description: flow cytometry, HL-60 human tumor cells.

“And” between values parts separate entries of the source, which are not always exact repeats. Equal entries are not always repeated.

On to “Mouse monoclonal antibody WM15 (BD Pharmingen, cat#555393)”, for which the geometric mean fluorescence was 4 in experiment [1]; 47 in experiment [2]; 7 and 9 in experiment [3]; 125 in experiment [4]; 59.3 in experiment [5]; 221 in experiment [6]. In addition, the geometric mean fluorescence in experiment [7] came out at 23.
